Source: IntAct's records for PubMed 27832861

B1: Aquaporin-7 (Homo sapiens), O14520 (parent)
chain: MVQASGHRRSTRGSKMVSWSVIAKIQEILQRKMVREFLAEFMSTYVMMVFGLGSVAHMVLNKKYGSYLGVNLGFGFGVTMGVHVAGRISGAHMNAAVTFANCALGRVPWRKFPVYVLGQFLGSFLAAATIYSLFYTAILHFSGGQLMVTGPVATAGIFATYLPDHMTLWRGFLNEAWLTGMLQLCLFAITDQENNPALPGTEALVIGILVVIIGVSLGMNTGYAINPSRDLPPRIFTFIAGWGKQVFSNGENWWWVPVVAPLLGAYLGGIIYLVFIGSTIPREPLKLEDSVAYEDHGITVLPKMGSHEPTISPLTPVSVSPANRSSVHPAPPLHESMALEHF
partner: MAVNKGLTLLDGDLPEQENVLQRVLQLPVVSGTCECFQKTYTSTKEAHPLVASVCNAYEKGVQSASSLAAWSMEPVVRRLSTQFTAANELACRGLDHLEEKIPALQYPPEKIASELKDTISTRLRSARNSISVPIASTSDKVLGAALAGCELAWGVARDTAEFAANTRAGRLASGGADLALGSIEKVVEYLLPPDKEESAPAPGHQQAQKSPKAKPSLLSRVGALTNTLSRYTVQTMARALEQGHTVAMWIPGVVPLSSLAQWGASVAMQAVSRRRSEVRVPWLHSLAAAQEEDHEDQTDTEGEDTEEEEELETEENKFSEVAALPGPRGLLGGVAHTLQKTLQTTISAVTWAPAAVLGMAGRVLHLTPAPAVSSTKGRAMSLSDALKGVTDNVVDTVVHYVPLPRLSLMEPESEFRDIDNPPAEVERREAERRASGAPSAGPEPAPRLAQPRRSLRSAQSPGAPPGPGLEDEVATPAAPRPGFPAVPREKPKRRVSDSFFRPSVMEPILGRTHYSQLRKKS

Variants of: B1
Conditions: with plin1_human PLIN1, O60240

effect of a mutation on the interaction	Variant
disrupting interaction strength	MVQASGHRRAARGSKMVSWSVIAKIQEILQRKMVREFLAEFMSTYVMMVFGLGSVAHMVLNKKYGSYLGVNLGFGFGVTMGVHVAGRISGAHMNAAVTFANCALGRVPWRKFPVYVLGQFLGSFLAAATIYSLFYTAILHFSGGQLMVTGPVATAGIFATYLPDHMTLWRGFLNEAWLTGMLQLCLFAITDQENNPALPGTEALVIGILVVIIGVSLGMNTGYAINPSRDLPPRIFTFIAGWGKQVFSNGENWWWVPVVAPLLGAYLGGIIYLVFIGSTIPREPLKLEDSVAYEDHGITVLPKMGSHEPTISPLTPVSVSPANRSSVHPAPPLHESMALEHF [S10A;T11A]
